Assay: yeast display, Sf9 membrane polyspecificity reagent, FACS + sequencing; frameworks hold sequencing errors
Procedure, shortened: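 In a synthetic yeast display library (Saccharomyces cerevisiae BJ5465), nanobody expression was induced with galactose for 36–48 hours. FACS gates were set low and high (top ~1%) using anti-HA fluorescence for expression and streptavidin fluorescence for binding of the Sf9 membrane reagent. Each polyreactivity label is drawn from the gate of origin.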

| Sequence | polyreactivity (PSR sort gate) |
| --- | --- |
| QVQLLESCGGLVQAGGSLRLSCAASGGTFQRYAMGWYRQAPGKERELVAAISSGGRTYYADSVKGRFTISRDNAKNTVYLEMNSLKAEDNAVYYCNAVGWTQRGRMFEYWGQGTQVTVSS | high polyreactivity |
| QVQLLESGAGLVQAGGSLRLSCAASGYIFYTYAMGWYRQAPGKERELVAAISSNGGSTYYADSVKGRFTISRDHAKNTVYLQMNSLKPEDTAVYYCAARGPYTRYRLSMDYWGQGTQVTVSS | high polyreactivity |
| QVQLLESGGGFVQAGGSLRLSCAASGQTFHGNTMGWYRQAPGKERELVAAISFDGGNTYADSVKGRFTKSRDNAKTSVYLHMNSLKPEDSAVYYDYWGPGTQVTVSS | low polyreactivity |
| QVQLLESGGGIVQAGGSLRLSCAASGRTFSRYVMGWYRQAPGKERELVATISRSGGSTFYADSVKGRFTISRDNAKNTVYLQMNSLKPEDTAVYYCNKKVQGYQVTYGYWGQGTQVTVSS | high polyreactivity |
| QVQLLESGGGLDQARGSLRLSCAASGRTFYGYGMGWSRQAPGKEREFVAAISYSGGSTYYADSVKGRFTISRDNAKNTVYLQMNSLKPEDTAVYYSAARNRGSCYYYWGQGTQVTVSS | high polyreactivity |
| QVQLLESGGGLVQAGASLRLSCAASGSTFSYYAMGWYRQAPGKERELDAAISWRGSSTYYADSVKRRITISRDNANNTVYLQMNSLTPEATAVYYCAAGYPGRVSGYLYGTRATYYYWGQGTQVTVSS | high polyreactivity |
| QVQLLESGGGLVQAGGILRLRCAASGIIVRGYVMGWYRQAPGKESELVAAISTSGGRTSYADSVKGRFTISRDNAKNTVYLQMNSLKPEDTAVYYCAARPLYSYSQSGYGYWGQGTQVTVSS | high polyreactivity |
| QVQLLESGGGLVQAGGSDRLSCAASGSIFSFNAMGWYRQAPGKERELVAAISRGGSTYYADSVKGRFTISRDNAKNTVYLQLNSLKPEDTAVYYCAADIYGHSYSYYLGEYWGQGTQVTVSS | high polyreactivity |
| QVQLLESGGGLVQAGGSIRLSFADSAFIFTSYSIGRYRQAPGKEREFVAAISWTGGTYYADSVKGRFTISRDNAKNTVYFLINSLKPEDTAVYYCAVRYKRKGSGYRYYLYVYWGQGTQVTVSS | high polyreactivity |
| QVQLLESGGGLVQAGGSLRISCAASGSTLRTNAMGWYRQAPGKERELVAAISTRGSSTYYADSVKGRFTISRDNSKNTVYLQMNSLKPEDTAVYYCAKDGVWYYSGTGMDYWGQGTQVTVSS | low polyreactivity |
| QVQLLESGGGLVQAGGSLRLCCASSGYIFWGANMGWYRQAPGKEREFVAAIGHGTVTCYADSVKGRFTISRDNAKNTVYLQMNSLKPEDTAVYNCAAYSDVRKPHRYWGQGTQVTVVS | high polyreactivity |
| QVQLLESGGGLVQAGGSLRLICAASGSTFVVYAMGWYRQAPGKERELVAAIRSGGGTYYADSVKGRFTISRDNAKNTVYLQMNSQKPEDTAVYYCNADSDPGPAYVYRDLYDYWGQGTQVTLSS | low polyreactivity |
| QVQLLESGGGLVQAGGSLRLSCAASGFIFYHYAMGWYIQAPGKERELVAANSRSGTSTYYADSVKGRFTISRDNAKNTVYLQMNSLKPEDTAVYYCNAVYTRYVYYYYEYDYWGQGTQVTVSS | high polyreactivity |
| QVQLLESGGGLVQAGGSLRLSCAASGFTFAWYAMGWYRQAPGKERELVAAISSRGSRTRYADSVKGRFTISRDNAKNTVYLQLNSLKPEDTAFYYCAKGSGARVVQVDRSGDYWGQGTQVTVSS | high polyreactivity |
| QVQLLESGGGLVQAGGSLRLSCAASGFTFGRYAMGWYRQAPGKERELVAAINTSGDRTFYADSVKGRFTISRDNAKNTVYLQMNSLKPVDTAVYYCAADVQSWVYPGSLYYWTYDFWGQGTQVTVSS | high polyreactivity |
| QVQLLESGGGLVQAGGSLRLSCAASGFTFTYYAMGWYRQAPGKERELVAAISRRGGSTYYADSVKGRFTISRDNAKNTVYLQMNSLKPEDTAVYYCARDYNSAVGMVYWGQGTQVTVSS | high polyreactivity |
| QVQLLESGGGLVQAGGSLRLSCAASGITFSRNAMGWYRQAPGKERELVATITSGGSTNYADSVKGRFTITRDNAMNTVYLQMISLKPEDTAVYYCYAVWNTFISGRSYEYWGQGTQVTVSS | low polyreactivity |
